Reference: patent publication US20260125457A1 (Janssen / Centocor, published 2026)
Where a chain is given by its changes, count along the chain named.

B1: CALRB75 (MP1004 Fab x CD3W245-LH-scFv, medium affinity) (bispecific antibody, part only; not given: CD3 scFv arm and IgG1 constant regions, V domains shown, not shown: another chain or arm of the molecule; a dimerising Fc or GST; small tags and cut ends)
VL: DPMLTQTPSSVSAAVGGTVTINCQSSQSVYNNNWLSWLQQKPGQPPNRLIYDASKLESGVPSRFSGSGSGTQFTLTISGVQSDDAATYYCAGGFTGNVYTFGGGTEVVVK
VH: QEQLEESGGRLVTPGTPLTLTCKVSGIDLSNNAISWVRQAPGKGLEYIGVIGNTGDTYYASWAKGRFTISKTSSTTVDLKMTSLTTEDTATYFCVRGPPSYSNSVKNIWGPGTLVTISS
B2: CALRB117 (MP1010 Fab x CD3W245-HL-scFv, high affinity) (bispecific antibody, part only; not given: anti-CD3 scFv arm, constant regions, V domains shown, not shown: another chain or arm of the molecule; a dimerising Fc or GST; small tags and cut ends)
VH: QSVEESGGRLVTPGTPLTLTCTVSGIDLSNNAISWVRQAPGKGLEYIGVIGNTGDTYYASWAKGRFTISKTSSTTVDLKMTSLTTEDTATYFCVRGPPSYSNSVKNIWGPGTLVTISS
VL: B1 VL with N22G, N31D, N32K, L38Y, N47S, A85V, T100A
B3: CALRB77 (MP1010 Fab x CD3W245-LH-scFv, medium affinity) (bispecific antibody, part only; not given: anti-CD3 scFv arm, constant regions, V domains shown, not shown: another chain or arm of the molecule; a dimerising Fc or GST; small tags and cut ends)
VL: B1 VL with N22G, N31D, N32K, L38Y, N47S, A85V, T100A
VH: B2 VH
B4: CALRB116 (MP1007 Fab x CD3W245-HL-scFv, high affinity) (bispecific antibody, part only; not given: anti-CD3 scFv arm, constant regions, V domains shown, not shown: another chain or arm of the molecule; a dimerising Fc or GST; small tags and cut ends)
VH: B2 VH with S2Q, V3L, T12A, T18R, I33V, D55T, S60N, E86D, K105R, I116V
VL: B1 VL with N22G, N31D, L38Y, E57A, Q81K, F94Y, T100S, E106M, V108E, V109I
B5: CALRB115 (MP1004 Fab x CD3W245-HL-scFv, high affinity) (bispecific antibody, part only; not given: anti-CD3 scFv arm, constant regions, V domains shown, not shown: another chain or arm of the molecule; a dimerising Fc or GST; small tags and cut ends)
VH: B1 VH
VL: B1 VL
B6: CALRB76 (MP1007 Fab x CD3W245-LH-scFv, medium affinity) (bispecific antibody, part only; not given: CD3 scFv arm and IgG1 constant regions, V domains shown, not shown: another chain or arm of the molecule; a dimerising Fc or GST; small tags and cut ends)
VL: B1 VL with N22G, N31D, L38Y, E57A, Q81K, F94Y, T100S, E106M, V108E, V109I
VH: B2 VH with S2Q, V3L, T12A, T18R, I33V, D55T, S60N, E86D, K105R, I116V
B7: CALRB114 (MP1001 Fab x CD3W245-HL-scFv, high affinity) (bispecific antibody, part only; not given: CD3 scFv arm and IgG1 constant regions, V domains shown, not shown: another chain or arm of the molecule; a dimerising Fc or GST; small tags and cut ends)
VH: QEQLKESGGRLVTPGTPLTLTCAVSGFSLDIYGMSWVRQAPGKGLEWIGIIYIEGITYYANWAKGRFTISKTSSTTLELKMTSLTTEDTAMYFCVAGVGRIWGPGTLVTVSS
VL: YVMMTQTPSSVSAAVGGTVTINCQASQSLYNNNNLAWFQQKPGQPPKRLIYPASTLASGVSSRFKGSGSGTQFTLTISDVQSDDAATYFCLGEFSCSSADCYAFGGGTEVVVK
B8: CALRB74 (MP1001 Fab x CD3W245-LH-scFv, medium affinity) (bispecific antibody, part only; not given: CD3 scFv arm and IgG1 constant regions, V domains shown, not shown: another chain or arm of the molecule; a dimerising Fc or GST; small tags and cut ends)
VL: B7 VL
VH: B7 VH
B9: CALRB118 (MP1016C Fab x CD3W245-HL-scFv, high affinity) (bispecific antibody, part only; not given: CD3 scFv arm and IgG1 constant regions, V domains shown, not shown: another chain or arm of the molecule; a dimerising Fc or GST; small tags and cut ends)
VL: DPVLTQTESPVSAAVGGTVTINCQASQSVYDDNNLAWYQQKPGQPPKRLIYPASTLASGVSSRFSGSGSGSQFTLTISDVQSDDAATYYCQGEFSCTSADCVAFGGGTEVVVK
VH: QEQLKESGGRLVTPGTPLTLTCTASGFSLSNYYMSWVRQAPGKGLEWIGGISSRAGTWYASWAKGRFTISGTSSTTMDLKITSPTTEDTATYFCARGLKIWGPGTLVTVSS
B10: CALRB119 (MP1016 Fab x CD3W245-HL-scFv, high affinity) (bispecific antibody, part only; not given: anti-CD3 scFv arm, constant regions, V domains shown, not shown: another chain or arm of the molecule; a dimerising Fc or GST; small tags and cut ends)
VL: B9 VL
VH: QEQLKESGGRLVTPGTPLTLTCTASGFSLSNYYMSWVRQAPGKGLEWIGGISSRAGTWYASWAKGRFTISGTSTTMDLKITSPTTEDTATYFCARGLKIWGPGTLVTVSS
B11: CALRB79 (MP1016 Fab x CD3W245-LH-scFv, medium affinity) (bispecific antibody, part only; not given: anti-CD3 scFv arm, constant regions, V domains shown, not shown: another chain or arm of the molecule; a dimerising Fc or GST; small tags and cut ends)
VL: B9 VL
VH: B10 VH
B12: CALRB78 (MP1016C Fab x CD3W245-LH-scFv, medium affinity) (bispecific antibody, part only; not given: anti-CD3 scFv arm, constant regions, V domains shown, not shown: another chain or arm of the molecule; a dimerising Fc or GST; small tags and cut ends)
VL: B9 VL
VH: B9 VH
B13: CALRB120 (MP1018C Fab x CD3W245-HL-scFv, high affinity) (bispecific antibody, part only; not given: CD3 scFv arm and IgG1 constant regions, V domains shown, not shown: another chain or arm of the molecule; a dimerising Fc or GST; small tags and cut ends)
VL: DVVMTQTPSSVSAAVGGTVTINCQASQSLYNNKNLAWYQQKPGQPPKLLIYYASALASGVSSRFKGSGSGTQFTLTISGVQSDDAATYYCQGEFNCNSADCNSFGGGTEVVVK
VH: QSVEESGGRLVTPGTPLTITCTVSGFSLSSYAMSWVRQAPGKGLEWIGVIDSGGTTYYATWAKSRFTISKTSSTKVALKITSPTTEDTATYFCARESYAGYDGYGHPIPYGMDPWGPGTLVTVSS
B14: CALRB80 (MP1018C Fab x CD3W245-LH-scFv, medium affinity) (bispecific antibody, part only; not given: CD3 scFv arm and IgG1 constant regions, V domains shown, not shown: another chain or arm of the molecule; a dimerising Fc or GST; small tags and cut ends)
VL: B13 VL
VH: B13 VH
B15: CALRB81 (MP1018 Fab x CD3W245-LH-scFv, medium affinity) (bispecific antibody, part only; not given: anti-CD3 scFv arm, constant regions, V domains shown, not shown: another chain or arm of the molecule; a dimerising Fc or GST; small tags and cut ends)
VL: B13 VL
VH: QSVEESGGRLVTPGTPLTITCTVSGFSLSSYAMSWVRQAPGKGLEWIGVIDSGGTTYYATWAKSRFTISKTTKVALKITSPTTEDTATYFCARESYAGYDGYGHPIPYGMDPWGPGTLVTVSS

Each binder was assayed against CALRdel52 (mutant calreticulin, 52 base pair deletion, Type 1) expressed with MPL on engineered cancer cells (UniProt P27797) (assay: cell-based or functional assay).
CALRdel52 (mutant calreticulin, 52 base pair deletion, Type 1) expressed with MPL on engineered cancer cells, sequence (P27797 other isoform, or with tags, fused parts or gaps mutant limits assumed): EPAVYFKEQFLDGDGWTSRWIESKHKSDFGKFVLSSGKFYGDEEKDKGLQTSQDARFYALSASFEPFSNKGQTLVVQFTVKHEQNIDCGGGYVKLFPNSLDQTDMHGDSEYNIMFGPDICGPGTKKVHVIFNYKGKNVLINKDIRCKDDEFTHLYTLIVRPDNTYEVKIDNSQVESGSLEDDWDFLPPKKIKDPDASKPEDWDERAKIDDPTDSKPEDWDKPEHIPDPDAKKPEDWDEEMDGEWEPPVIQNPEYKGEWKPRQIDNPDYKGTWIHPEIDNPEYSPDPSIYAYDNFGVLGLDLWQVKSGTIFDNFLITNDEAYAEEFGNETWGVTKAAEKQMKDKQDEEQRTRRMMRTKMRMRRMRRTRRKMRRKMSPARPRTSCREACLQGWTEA
With B1 the Cytotoxicity EC50, K562 MPL CALRdel52 cells was 0.193 µg/mL and the Cytotoxicity EC50, OCI-M2 MPL CALRdel52 cells was 0.115 µg/mL. B2 was tested, and the Cytotoxicity EC50, K562 MPL CALRdel52 cells was 0.0403 µg/mL and the Cytotoxicity EC50, OCI-M2 MPL CALRdel52 cells was 0.0598 µg/mL. B3 was tested, and the Cytotoxicity EC50, K562 MPL CALRdel52 cells was 0.195 µg/mL and the Cytotoxicity EC50, OCI-M2 MPL CALRdel52 cells was 0.183 µg/mL. B4 gave a Cytotoxicity EC50, K562 MPL CALRdel52 cells of 0.0243 µg/mL and a Cytotoxicity EC50, OCI-M2 MPL CALRdel52 cells of 0.0802 µg/mL. In the case of B5, the Cytotoxicity EC50, K562 MPL CALRdel52 cells is reported as 0.0348 µg/mL and the Cytotoxicity EC50, OCI-M2 MPL CALRdel52 cells is reported as 0.0508 µg/mL. With B6 the Cytotoxicity EC50, K562 MPL CALRdel52 cells was 0.0633 µg/mL and the Cytotoxicity EC50, OCI-M2 MPL CALRdel52 cells was 0.0897 µg/mL. B7 showed a Cytotoxicity EC50, K562 MPL CALRdel52 cells of 0.0112 µg/mL and a Cytotoxicity EC50, OCI-M2 MPL CALRdel52 cells of 0.0168 µg/mL. B8 gave a Cytotoxicity EC50, K562 MPL CALRdel52 cells of 0.0521 µg/mL and a Cytotoxicity EC50, OCI-M2 MPL CALRdel52 cells of 0.0253 µg/mL. In the case of B9, the Cytotoxicity EC50, K562 MPL CALRdel52 cells is reported as 0.0099 µg/mL and the Cytotoxicity EC50, OCI-M2 MPL CALRdel52 cells is reported as 0.505 µg/mL. Work on B10 yielded a Cytotoxicity EC50, K562 MPL CALRdel52 cells of 0.0064 µg/mL and a Cytotoxicity EC50, OCI-M2 MPL CALRdel52 cells of 0.504 µg/mL. B11 was tested, and the Cytotoxicity EC50, K562 MPL CALRdel52 cells was 0.0444 µg/mL and the Cytotoxicity EC50, OCI-M2 MPL CALRdel52 cells was 0.112 µg/mL. B12 gave a Cytotoxicity EC50, K562 MPL CALRdel52 cells of 0.0393 µg/mL and a Cytotoxicity EC50, OCI-M2 MPL CALRdel52 cells of 0.0581 µg/mL. B13 was tested, and the Cytotoxicity EC50, K562 MPL CALRdel52 cells was 0.0077 µg/mL and the Cytotoxicity EC50, OCI-M2 MPL CALRdel52 cells was 0.0091 µg/mL. Work on B14 yielded a Cytotoxicity EC50, K562 MPL CALRdel52 cells of 0.0401 µg/mL and a Cytotoxicity EC50, OCI-M2 MPL CALRdel52 cells of 0.0205 µg/mL. In the case of B15, the Cytotoxicity EC50, K562 MPL CALRdel52 cells is reported as 0.0457 µg/mL and the Cytotoxicity EC50, OCI-M2 MPL CALRdel52 cells is reported as 0.0196 µg/mL.

These binders were tested against CALRins5 (mutant calreticulin, 5 base pair insertion, Type 2) expressed with MPL on engineered cancer cells (UniProt P27797) (assay: cell-based or functional assay).
CALRins5 (mutant calreticulin, 5 base pair insertion, Type 2) expressed with MPL on engineered cancer cells, sequence (P27797 other isoform, or with tags, fused parts or gaps mutant limits assumed): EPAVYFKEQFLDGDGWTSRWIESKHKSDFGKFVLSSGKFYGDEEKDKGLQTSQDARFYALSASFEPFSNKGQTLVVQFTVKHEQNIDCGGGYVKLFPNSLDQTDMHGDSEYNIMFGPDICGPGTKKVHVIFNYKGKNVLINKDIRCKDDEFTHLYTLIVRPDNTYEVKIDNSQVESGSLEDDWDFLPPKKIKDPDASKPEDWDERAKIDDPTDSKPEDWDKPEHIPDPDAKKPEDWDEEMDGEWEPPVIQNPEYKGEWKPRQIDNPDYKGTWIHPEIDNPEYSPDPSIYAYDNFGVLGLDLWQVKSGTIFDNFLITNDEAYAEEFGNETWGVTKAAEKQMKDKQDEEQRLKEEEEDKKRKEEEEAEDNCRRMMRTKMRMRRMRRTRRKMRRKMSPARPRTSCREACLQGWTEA
With B1 the Cytotoxicity EC50, K562 MPL CALRins5 cells was 0.116 µg/mL and the Cytotoxicity EC50, OCI-M2 MPL CALRins5 cells was 0.129 µg/mL. With B2 the Cytotoxicity EC50, K562 MPL CALRins5 cells was 0.0741 µg/mL and the Cytotoxicity EC50, OCI-M2 MPL CALRins5 cells was 0.0481 µg/mL. B3 was tested, and the Cytotoxicity EC50, K562 MPL CALRins5 cells was 0.414 µg/mL and the Cytotoxicity EC50, OCI-M2 MPL CALRins5 cells was 0.189 µg/mL. Work on B4 yielded a Cytotoxicity EC50, K562 MPL CALRins5 cells of 0.0953 µg/mL and a Cytotoxicity EC50, OCI-M2 MPL CALRins5 cells of 0.0392 µg/mL. B5 gave a Cytotoxicity EC50, K562 MPL CALRins5 cells of 0.0541 µg/mL and a Cytotoxicity EC50, OCI-M2 MPL CALRins5 cells of 0.0431 µg/mL. In the case of B6, the Cytotoxicity EC50, K562 MPL CALRins5 cells is reported as 0.107 µg/mL and the Cytotoxicity EC50, OCI-M2 MPL CALRins5 cells is reported as 0.189 µg/mL. B7 was tested, and the Cytotoxicity EC50, K562 MPL CALRins5 cells was 0.0163 µg/mL and the Cytotoxicity EC50, OCI-M2 MPL CALRins5 cells was 0.0235 µg/mL. Binder B8 has a Cytotoxicity EC50, K562 MPL CALRins5 cells of 0.0304 µg/mL and a Cytotoxicity EC50, OCI-M2 MPL CALRins5 cells of 0.0322 µg/mL. B9 showed a Cytotoxicity EC50, K562 MPL CALRins5 cells of 0.0157 µg/mL and a Cytotoxicity EC50, OCI-M2 MPL CALRins5 cells of 0.0136 µg/mL. In the case of B10, the Cytotoxicity EC50, K562 MPL CALRins5 cells is reported as 0.0104 µg/mL and the Cytotoxicity EC50, OCI-M2 MPL CALRins5 cells is reported as 0.0225 µg/mL. B11 was tested, and the Cytotoxicity EC50, K562 MPL CALRins5 cells was 0.0416 µg/mL and the Cytotoxicity EC50, OCI-M2 MPL CALRins5 cells was 0.0911 µg/mL. B12 showed a Cytotoxicity EC50, K562 MPL CALRins5 cells of 0.0648 µg/mL and a Cytotoxicity EC50, OCI-M2 MPL CALRins5 cells of 0.0792 µg/mL. In the case of B13, the Cytotoxicity EC50, K562 MPL CALRins5 cells is reported as 0.0119 µg/mL and the Cytotoxicity EC50, OCI-M2 MPL CALRins5 cells is reported as 0.0145 µg/mL. Work on B14 yielded a Cytotoxicity EC50, K562 MPL CALRins5 cells of 0.0434 µg/mL and a Cytotoxicity EC50, OCI-M2 MPL CALRins5 cells of 0.0212 µg/mL. In the case of B15, the Cytotoxicity EC50, K562 MPL CALRins5 cells is reported as 0.0509 µg/mL and the Cytotoxicity EC50, OCI-M2 MPL CALRins5 cells is reported as 0.0171 µg/mL.
